# Assay results reported in patent US20190389905A1 (OREGON STATE UNIVERSITY, published 2019).
# The star is where a group is joined. Biotin = O=C1N[C@H]2[C@H](CS[C@H]2CCCCC(=O)*)N1; Ahx = NCCCCCC(=O)O
# T1: sAniA, recombinant AniA (NGO1276) of Neisseria gonorrhoeae FA1090 lacking the N-terminal palmitoylation … (Neisseria gonorrhoeae FA1090, UniProt Q02219 19-392)
# T1 sequence: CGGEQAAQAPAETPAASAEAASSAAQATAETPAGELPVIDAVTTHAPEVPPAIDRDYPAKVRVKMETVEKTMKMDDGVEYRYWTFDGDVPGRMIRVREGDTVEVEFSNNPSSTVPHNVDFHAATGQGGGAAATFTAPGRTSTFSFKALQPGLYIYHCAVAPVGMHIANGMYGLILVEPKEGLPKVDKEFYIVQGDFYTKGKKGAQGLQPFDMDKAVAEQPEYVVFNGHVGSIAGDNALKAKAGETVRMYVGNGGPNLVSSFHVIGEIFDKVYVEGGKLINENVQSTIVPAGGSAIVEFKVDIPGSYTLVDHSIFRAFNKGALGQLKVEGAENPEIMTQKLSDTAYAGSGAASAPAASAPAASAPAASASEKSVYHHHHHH
# Tests used:
# [1] = biological target: T1, sAniA, recombinant AniA (NGO1276) of …; assay: cell-based or functional assay
# [2] = biological target: T1, sAniA, recombinant AniA (NGO1276) of …; assay: biolayer interferometry (OctetRed 96): C7-3Bio on streptavidin sensors, sAniA 50-1000 nM in solution, 2:1 heterogeneous ligand model, average ± SEM of three experiments
# Description: Streptavidin (SA) biosensors (ForteBio) were loaded with C7-3Bio peptides for 10 min. Unloaded tips were used as a control. The sAniA samples were prepared in Kinetic Buffer in concentrations of 50, 100, 500, and 1000 nM. The baseline was established for 240 s and the association and dissociation steps were performed for 500 s. Experiments were performed in three biological replicates with the curve fitting using 2:1 (Heterogeneous Ligand) model and KD value calculations were completed using Octet Data Analysis (version 9).
# The BLI experiments were performed using steady state method and curve fitting of the association and dissociation responses.
# [3] = biological target: AniA expressed by intact N. gonorrhoeae FA1090 ΔaniA/Plac::aniA cells (Neisseria gonorrhoeae FA1090), Q02219; assay: cell-based or functional assay
# [4] = biological target: T1, sAniA, recombinant AniA (NGO1276) of …; assay: phage ELISA on sAniA-coated wells; reference is phage-displayed 12-5
# Description: Individual wells in 96-well transparent plates (Greiner-Bio) were coated with 100 μL of 100 pg/mL of sAniA suspended in 0.1 M NaHCO₃pH 8.6 and incubated overnight at 4° C. in an airtight humidified box. After incubation, excess target solution was shaken out and wells were filled with 300 μL of blocking buffer (0.1 M NaHCO₃pH 8.6, 5 mg/mL BSA). Following 2 h incubation at 4° C., blocking buffer was removed and wells were washed six times with 200 μL of TBST (50 mM Tris-HCl pH 8.6, 150 mM NaCl, 0.5% Tween). Isolated individual phage amplifications (10¹⁰ PFU) in 100 μl of TBST were incubated at room temperature for 1 h with rocking. All wells were then cleared by shaking and washed six times with 200 μL of TBST. A solution containing Anti-M13 HRP linked-Monoclonal Antibodies (NEB) (1:5,000 dilution in blocking buffer) was distributed at 200 μL per well and incubated with rocking at room temperature for 1 h. Wells were washed six times with TBST and incubated with Turbo TMB-ELISA for 30 min with rocking at room temperature. […] Data from seven independent experiments are shown with mean and SEM
binder,measurement,setting,value
H-ACNYSRLNLWGGGS-NH2 [synthetic peptide C7-3m1 (H-ACNYSRLNLWGGGS-NH2)],IC50 of inhibition of nitrite reductase activity of sAniA (DAN assay),[1],5.91 µM
H-ACNFCRLNLWGGGS-NH2 (cysteine pairing not given here) [synthetic peptide C7-3P (H-ACNFCRLNLWGGGS-NH2)],IC50 of inhibition of nitrite reductase activity of sAniA (DAN assay),[1],> 105 µM
H-ACNACRLNLWGGGS-NH2 (cysteine pairing not given here) [synthetic peptide C7-3A (H-ACNACRLNLWGGGS-NH2)],IC50 of inhibition of nitrite reductase activity of sAniA (DAN assay),[1],~25.2 µM
"{Biotin-Ahx}-ACNYCRLNLWGGGS-NH2 (cysteine pairing not given here, Immobilized on streptavidin biosensors in the BLI experiment; also called biotinylated C7-3) [C7-3Bio, C7-3 biotinylated at the N-terminus (BiotinAhx-ACNYCRLNLWGGGS-NH2)]",Kd,[2],0.775 µM
same,IC50 of inhibition of nitrite reductase activity of AniA (DAN assay),[1],13.5 µM
H-ACSYCRLNLWGGGS-NH2 (cysteine pairing not given here) [synthetic peptide C7-3m2 (H-ACSYCRLNLWGGGS-NH2)],IC50 of inhibition of nitrite reductase activity of sAniA (DAN assay),[1],4.81 µM
H-ACNYCRLNLWGGGS-NH2 (cysteine pairing not given here) [synthetic peptide C7-3 (H-…-NH2)],percent inhibition of nitrite reductase activity of intact N. gonorrhoeae cells at 0.6 mM peptide,[3],50%
H-ACNYCRLNLWGGGS-NH2 (cysteine pairing not given here) [synthetic peptide C7-3 (H-ACNYCRLNLWGGGS-NH2)],IC50 of inhibition of nitrite reductase activity of sAniA (DAN assay),[1],10.2 µM
H-ACSYCRLNLWGGGS-NH2 (cysteine pairing not given here) [synthetic peptide C7-3m2 (H-…-NH2)],percent inhibition of nitrite reductase activity of intact N. gonorrhoeae cells at 0.3 mM peptide,[3],50%
same,percent inhibition of nitrite reductase activity of intact N. gonorrhoeae cells at 0.6 mM peptide,[3],90%
"CNYCRLNLW (peptide, not shown: large carriers, Tested as whole phage (10^10 PFU per well) in the phage ELISA; Trp stands where the library's second Cys would be; also called phage-expressed C7-3) [phage-displayed peptide C7-3 (CNYCRLNLW), M13 phage clone from the Ph.D.-C7C library]",fold lower relative binding in comparison to 12-5,[4],~2 fold
